According to patent US12134610B2, “Somatostatin subtype-2 receptor (SST2R) targeted therapeutics and uses thereof” (priority 2022, dated 2024):
Read-outs that look alike come from different tables or passages of the source.

Columns and labels:
[1] = tested on: NCI-H524 (ATCC) human small cell lung cancer cells; format: cell-based
Outline: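 NCI-H524 cells (5,000/well) were exposed 24 h after plating to SMDC for 2 h, 11-point two-fold series from 1 uM. After washout they grew a further 70 h. Proliferation was read by CellTiter-Glo luminescence, % inhibition taken vs untreated control, and IC50 fitted by four-parameter nonlinear regression.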

[2] = molecular target: T1, human somatostatin receptor subtype 2 (Homo sapiens, UniProt P30874); experiment: Functional cAMP assay for SSTR2 agonists (HTRF) in CHO-K1 cells; format: cell-based; settings: CHO-K1 cells stably expressing human SST2, 20 min; read-out: hSST2 cAMP Avg EC50
T1 construct: expressed in transfected cells
Outline: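 CHO-K1 cells stably expressing receptor, plated 4 days before assay, treated 20 min at 37° C. with compound (typically 0-10,000 nM final) plus IBMX and 1.6 μM NKH477 to raise cAMP. HTRF read, 665/620 nm ratio; cAMP from standard curve, EC50 fitted.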

SST2 = molecular target: T2, SST2 (Homo sapiens, UniProt P30874); experiment: PathHunter CHO-K1 SST2 internalization assay; format: cell-based; settings: PathHunter CHO-K1 SST2, 90 min; read-out: Internalization EC50
T2 construct: host or cells: PathHunter CHO-K1 SST2 cells
Outline: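 PathHunter CHO-K1 SST2 cells, seeded and grown 48 h, were exposed to 11-point 1:3 dilutions of SMDC (top final 10 uM) for 90 min at 37 C, 5% CO2. Beta-Glo luminescence was read after 60 min at room temperature. Background-corrected duplicate means were fitted by four-parameter nonlinear regression to give IC50.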

[3] = H524 tumor biodistribution model: tumor and plasma levels of SMDC and MMAE by LC/MS-MS; format: in vivo, female Athymic nude mice; settings: H524 tumor bearing nude mice
Procedure: In this example, 5 million H524 (Small Cell Lung Cancer) cells in 1:1 Matrigel: cold Media (RPMI1640) were injected into the subcutaneous (SQ) flank of female Athymic nude mice. Tumor volumes and body weights were measured twice a week. The tumors were allowed to grow until they reached 250-500 mm^3 in size before animals were randomized into groups (n=3/time point). Animals were injected intravenously with a SMDC of the present invention at a single dose of 500 nmol/kg. […] BLQ: Below Limit of Quantitation.

[4] = MMAE level 1 h after 500 nmol/kg IV of the conjugate
[5] = MMAE level 4 h after 500 nmol/kg IV of the conjugate
[6] = MMAE level 24 h after 500 nmol/kg IV of the conjugate
[7] = MMAE level 72 h after 500 nmol/kg IV of the conjugate
[8] = female, Athymic nude, mouse, plasma, 4 h after 500 nmol/kg IV, read-out: Conjugate Plasma
[9] = female, Athymic nude, mouse, plasma, 24 h after 500 nmol/kg IV, read-out: Conjugate Plasma
[10] = female, Athymic nude, mouse, 4 h after 500 nmol/kg IV, read-out: Conjugate Tumor
[11] = MMAE level 168 h after 500 nmol/kg IV of the conjugate
[12] = female, Athymic nude, mouse, 24 h after 500 nmol/kg IV, read-out: Conjugate Tumor
[13] = MMAE level 240 h after 500 nmol/kg IV of the conjugate

T2 sequence (P30874 whole entry): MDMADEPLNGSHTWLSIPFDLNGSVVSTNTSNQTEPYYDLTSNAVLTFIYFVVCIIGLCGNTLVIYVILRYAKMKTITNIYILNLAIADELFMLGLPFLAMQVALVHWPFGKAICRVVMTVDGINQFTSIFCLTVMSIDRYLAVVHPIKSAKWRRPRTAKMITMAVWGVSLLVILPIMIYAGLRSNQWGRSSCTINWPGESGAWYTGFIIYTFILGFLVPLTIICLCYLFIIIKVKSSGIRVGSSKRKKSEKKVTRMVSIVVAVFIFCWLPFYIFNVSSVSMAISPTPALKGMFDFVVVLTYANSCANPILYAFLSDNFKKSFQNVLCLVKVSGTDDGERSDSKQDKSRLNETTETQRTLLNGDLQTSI
T1 sequence (P30874 whole entry): as above

| Structure (SMILES) | EC50 ([1]; 2 h) [nM] | EC50 [2] [nM] | EC50 (SST2) [nM] | Conjugate Plasma (nM) ([3]; 72 h after 500 nmol/kg IV) | Conjugate Tumor (nM) ([3]; 72 h after 500 nmol/kg IV) | MMAE Plasma [3, 5] [nM] | MMAE Tumor [3, 5] [nM] | MMAE Tumor [3, 6] [nM] | MMAE Plasma (nM) [3, 7] | MMAE Tumor [3, 7] [nM] | level at time molar at 4 h [3, 8] [nM] | level at time molar at 24 h [3, 9] [nM] | level at time molar at 4 h [3, 10] [nM] | other results |
| --- | --- | --- | --- | --- | --- | --- | --- | --- | --- | --- | --- | --- | --- | --- |
| CC[C@H](C)[C@@H]([C@@H](CC(=O)N1CCC[C@H]1[C@H](OC)[C@@H](C)C(=O)N[C@H](C)[C@@H](O)c1ccccc1)OC)N(C)C(=O)[C@@H](NC(=O)[C@H](C(C)C)N(C)C(=O)OCc1ccc(NC(=O)[C@H](CCCNC(N)=O)NC(=O)[C@@H](NC(=O)[C@H](CCC(=O)O)NC(=O)CCOCCC(=O)NCCNc2ncc(-c3cc(C)cc(F)c3)c(N3CCC(N)CC3)c2-c2nc3ccc(Cl)cc3[nH]2)C(C)C)cc1C(=O)NCCN)C(C)C [Compound 49] | 17.3 | 0.14 | 5.5 | BLQ | BLQ | 1.36 | 65.7 | 83.5 | BLQ | 62.7 | 41.6 | 0.783 | 46.5 | Conjugate Tumor (nM) ([3]; 24 h after 500 nmol/kg IV): BLQ; MMAE Plasma [3, 4]: 9.2 nM; MMAE Tumor [3, 4]: 38 nM; MMAE Plasma (nM) [3, 6]: BLQ; level at time molar at 1 h ([3]; female, Athymic nude, mouse, plasma, 1 h after 500 nmol/kg IV, read-out: Conjugate Plasma): 354 nM; level at time molar at 1 h ([3]; female, Athymic nude, mouse, 1 h after 500 nmol/kg IV, read-out: Conjugate Tumor): 88.1 nM |
| CC[C@H](C)[C@@H]([C@@H](CC(=O)N1CCC[C@H]1[C@H](OC)[C@@H](C)C(=O)N[C@H](C)[C@@H](O)c1ccccc1)OC)N(C)C(=O)[C@@H](NC(=O)[C@H](C(C)C)N(C)C(=O)OCc1ccc(NC(=O)[C@H](CCCNC(N)=O)NC(=O)[C@@H](NC(=O)CCOCCC(=O)NCCNc2ncc(-c3cc(C)cc(F)c3)c(N3CCC(N)CC3)c2-c2nc3ccc(Cl)cc3[nH]2)C(C)C)c(O[C@@H]2O[C@H](C(=O)O)[C@@H](O)[C@H](O)[C@H]2O)c1)C(C)C [Compound 61] | 33.2 | 0.11 | 12.7 | BLQ | BLQ | 0.754 | 75.0 | 320 | BLQ | 267 | 1100 | 56.5 | 181 | Conjugate Plasma (nM) ([3]; 168 h after 500 nmol/kg IV): BLQ; Conjugate Tumor (nM) ([3]; 168 h after 500 nmol/kg IV): BLQ; MMAE Plasma (nM) [3, 11]: BLQ; MMAE Tumor [3, 11]: 97.8 nM; level at time molar at 24 h [3, 12]: 37 nM |
| CC[C@H](C)[C@@H]([C@@H](CC(=O)N1CCC[C@H]1[C@H](OC)[C@@H](C)C(=O)N[C@H](C)[C@@H](O)c1ccccc1)OC)N(C)C(=O)[C@@H](NC(=O)[C@H](C(C)C)N(C)C(=O)OCc1ccc(NC(=O)[C@H](C)NC(=O)[C@@H](NC(=O)CCOCCC(=O)NCCNc2ncc(-c3cc(C)cc(F)c3)c(N3CCC(N)CC3)c2-c2nc3ccc(Cl)cc3[nH]2)C(C)C)c(O[C@@H]2O[C@H](C(=O)O)[C@@H](O)[C@H](O)[C@H]2O)c1)C(C)C [Compound 68] |  |  |  |  | BLQ | 1.94 | 197 | 299 | BLQ | 231 |  |  |  | EC50 ([1]; 2 h treatment, washout, additional 70 h, read-out: H524 EC50): 11.2 nM; level at time molar at 24 h ([3]; 1 h after 500 nmol/kg IV, read-out: Conjugate Plasma): 1388 nM; level at time molar at 24 h ([3]; 1 h after 500 nmol/kg IV, read-out: Conjugate Tumor): 212 nM; level at time molar at 24 h ([3]; 4 h after 500 nmol/kg IV, read-out: Conjugate Plasma): 446 nM; level at time molar at 24 h ([3]; 4 h after 500 nmol/kg IV, read-out: Conjugate Tumor): 91.3 nM; level at time molar at 24 h ([3]; 24 h after 500 nmol/kg IV, read-out: Conjugate Plasma): 36.9 nM; level at time molar at 24 h ([3]; 24 h after 500 nmol/kg IV, read-out: Conjugate Tumor): 15.5 nM; level at time molar at 24 h ([3]; 72 h after 500 nmol/kg IV, read-out: Conjugate Plasma): 0.68 nM; MMAE Plasma [3, 4]: 8.82 nM; MMAE Tumor [3, 4]: 17.5 nM; MMAE Plasma [3, 6]: 0.416 nM |
| CC[C@H](C)[C@@H]([C@@H](CC(=O)N1CCC[C@H]1[C@H](OC)[C@@H](C)C(=O)N[C@H](C)[C@@H](O)c1ccccc1)OC)N(C)C(=O)[C@@H](NC(=O)[C@H](C(C)C)N(C)C(=O)OCc1ccc(NC(=O)[C@H](CCCNC(N)=O)NC(=O)[C@@H](NC(=O)[C@@H](CS(=O)(=O)O)NC(=O)CCOCCC(=O)NCCNc2ncc(-c3cc(C)cc(F)c3)c(N3CCC(N)CC3)c2-c2nc3ccc(Cl)cc3[nH]2)C(C)C)cc1C(=O)NCCN)C(C)C [Compound 107] | 4 | 0.15 | 2.2 | BLQ |  | 2.26 | 123 | 242 | BLQ | 141 | 83.1 | 0.441 | 94.2 | Conjugate Plasma (nM) ([3]; 168 h after 500 nmol/kg IV): BLQ; Conjugate Tumor (nM) ([3]; 168 h after 500 nmol/kg IV): BLQ; Conjugate Plasma (nM) ([3]; 240 h after 500 nmol/kg IV): BLQ; Conjugate Tumor (nM) ([3]; 240 h after 500 nmol/kg IV): BLQ; MMAE Plasma (nM) [3, 6]: BLQ; MMAE Plasma (nM) [3, 11]: BLQ; MMAE Tumor [3, 11]: 90.1 nM; MMAE Plasma (nM) [3, 13]: BLQ; MMAE Tumor [3, 13]: 25.2 nM; level at time molar at 24 h [3, 12]: 9.26 nM; level at time molar at 72 h ([3]; female, Athymic nude, mouse, 72 h after 500 nmol/kg IV, read-out: Conjugate Tumor): 1.64 nM |
| CC[C@H](C)[C@@H]([C@@H](CC(=O)N1CCC[C@H]1[C@H](OC)[C@@H](C)C(=O)N[C@H](C)[C@@H](O)c1ccccc1)OC)N(C)C(=O)[C@@H](NC(=O)[C@H](C(C)C)N(C)C(=O)OCc1ccc(NC(=O)[C@H](C)NC(=O)[C@@H](NC(=O)CCNCCC(=O)NCCNc2ncc(-c3cc(C)cc(F)c3)c(N3CCC(N)CC3)c2-c2nc3ccc(Cl)cc3[nH]2)C(C)C)c(O[C@@H]2O[C@H](C(=O)O)[C@@H](O)[C@H](O)[C@H]2O)c1)C(C)C [Compound 155] | 71 | 0.24 | 29 |  |  |  |  |  |  |  |  |  |  |  |
| CC[C@H](C)[C@@H]([C@@H](CC(=O)N1CCC[C@H]1[C@H](OC)[C@@H](C)C(=O)N[C@H](C)[C@@H](O)c1ccccc1)OC)N(C)C(=O)[C@@H](NC(=O)[C@H](C(C)C)N(C)C(=O)OCc1ccc(NC(=O)[C@H](C)NC(=O)[C@@H](NC(=O)CCOCCNCCC(=O)NCCNc2ncc(-c3cc(C)cc(F)c3)c(N3CCC(N)CC3)c2-c2nc3ccc(Cl)cc3[nH]2)C(C)C)c(O[C@@H]2O[C@H](C(=O)O)[C@@H](O)[C@H](O)[C@H]2O)c1)C(C)C [Compound 156] | 76 | 0.24 | 25 |  |  |  |  |  |  |  |  |  |  |  |
| CC[C@H](C)[C@@H]([C@@H](CC(=O)N1CCC[C@H]1[C@H](OC)[C@@H](C)C(=O)N[C@H](C)[C@@H](O)c1ccccc1)OC)N(C)C(=O)[C@@H](NC(=O)[C@H](C(C)C)N(C)C(=O)OCc1ccc(NC(=O)[C@H](C)NC(=O)[C@@H](NC(=O)[C@H](CS(=O)(=O)O)NC(=O)CCOCCOCCOCCOCCC(=O)NCCNc2ncc(-c3cc(C)cc(F)c3)c(N3CCC(N)CC3)c2-c2nc3ccc(Cl)cc3[nH]2)C(C)C)cc1C(=O)NCCN)C(C)C [Compound 158] | 3 | 0.24 | 12 |  |  |  |  |  |  |  |  |  |  |  |
| CC[C@H](C)[C@@H]([C@@H](CC(=O)N1CCC[C@H]1[C@H](OC)[C@@H](C)C(=O)N[C@H](C)[C@@H](O)c1ccccc1)OC)N(C)C(=O)[C@@H](NC(=O)[C@H](C(C)C)N(C)C(=O)OCc1ccc(NC(=O)[C@H](CCCNC(N)=O)NC(=O)[C@@H](NC(=O)[C@H](CS(N)(=O)=O)NC(=O)CCOCCC(=O)NCCNc2ncc(-c3cc(C)cc(F)c3)c(N3CCC(N)CC3)c2-c2nc3ccc(Cl)cc3[nH]2)C(C)C)cc1C(=O)NCCN)C(C)C [Compound 159] | 2.6 | 0.3 | 10 |  |  |  |  |  |  |  |  |  |  |  |
